B1: unlabeled RD hybrid (25 bp RNA/DNA) (DNA:RNA)
DNA: GATTCATACCTGTCGTGCCAGCTGC
RNA: GCAGCUGGCACGACAGGUAUGAAUC
B2: Dig-RD hybrid (25 bp RNA/DNA) (DNA:RNA)
DNA: GATTCATACCTGTCGTGCCAGCTGC
RNA: GCAGCUGGCACGACAGGUAUGAAUC

How the values were obtained:
[1] = target: T1, Flag-mut-RNase HEC (catalytically dead RNase HI) (E. coli, UniProt P0A7Y4 1-155, D10R;E48R); assay: competition
T1 sequence: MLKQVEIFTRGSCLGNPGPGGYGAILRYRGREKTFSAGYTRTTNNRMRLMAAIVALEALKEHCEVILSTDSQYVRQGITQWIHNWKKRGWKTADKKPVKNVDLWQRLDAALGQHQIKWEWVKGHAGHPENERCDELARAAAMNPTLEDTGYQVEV

[2] = target: T1, Flag-mut-RNase HEC (catalytically dead …); assay: EMSA

| Binder | binding result [1] | binding result [2] |
| --- | --- | --- |
| B1 | binds |  |
| B2 |  | binds |
